From patent US10562947B2, “Compositions and methods for preventing or treating diseases, conditions or processes characterized by aberrant fibroblast proliferation and extracellular matrix deposition” (MOERAE MATRIX, INC., priority 2011, dated 2020)

What was measured:
Assay in all cases: Kinase Profiling Assay
Type in all cases: biochemical
Conditions in all cases: 100 μM peptide
[1] = molecular target: T1, ZAP-70(h) (Homo sapiens, UniProt P43403)
T1 sequence (P43403 1-619): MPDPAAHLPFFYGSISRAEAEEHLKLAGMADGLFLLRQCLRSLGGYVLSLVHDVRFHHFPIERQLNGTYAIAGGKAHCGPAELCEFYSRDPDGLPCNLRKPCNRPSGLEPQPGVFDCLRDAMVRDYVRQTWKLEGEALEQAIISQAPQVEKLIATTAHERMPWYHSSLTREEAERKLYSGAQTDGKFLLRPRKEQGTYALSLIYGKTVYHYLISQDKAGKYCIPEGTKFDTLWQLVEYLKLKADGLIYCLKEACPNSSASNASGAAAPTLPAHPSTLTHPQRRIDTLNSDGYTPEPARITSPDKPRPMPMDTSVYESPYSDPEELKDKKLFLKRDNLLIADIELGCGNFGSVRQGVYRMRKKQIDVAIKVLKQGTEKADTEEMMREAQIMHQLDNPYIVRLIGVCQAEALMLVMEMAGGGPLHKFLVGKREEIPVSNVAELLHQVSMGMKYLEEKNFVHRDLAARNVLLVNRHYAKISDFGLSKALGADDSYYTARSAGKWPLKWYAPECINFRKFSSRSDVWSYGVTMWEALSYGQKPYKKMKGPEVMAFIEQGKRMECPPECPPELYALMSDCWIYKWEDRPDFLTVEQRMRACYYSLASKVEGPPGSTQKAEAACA
Outline: (§1)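 MK2 inhibitory peptides were screened for specificity across a commercial panel of 266 human kinases, and each kinase activity measurement was run in duplicate.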

[2] = molecular target: CHK2(R145W)(h) (Homo sapiens, UniProt O96017, R145W)
Outline: as §1

[3] = molecular target: CaMKIIγ(h) (Homo sapiens, UniProt Q13555)
Outline: as §1

[4] = molecular target: CDK1/cyclinB(h) (Homo sapiens, UniProt P06493)
Outline: as §1

[5] = molecular target: CHK2(I157T)(h) (Homo sapiens, UniProt O96017, I157T)
Outline: as §1

[6] = molecular target: Aurora-B(h) (Homo sapiens, UniProt Q96GD4)
Outline: as §1

[7] = molecular target: T2, TSSK2(h) (Homo sapiens, UniProt Q96PF2)
T2 sequence (Q96PF2 1-358): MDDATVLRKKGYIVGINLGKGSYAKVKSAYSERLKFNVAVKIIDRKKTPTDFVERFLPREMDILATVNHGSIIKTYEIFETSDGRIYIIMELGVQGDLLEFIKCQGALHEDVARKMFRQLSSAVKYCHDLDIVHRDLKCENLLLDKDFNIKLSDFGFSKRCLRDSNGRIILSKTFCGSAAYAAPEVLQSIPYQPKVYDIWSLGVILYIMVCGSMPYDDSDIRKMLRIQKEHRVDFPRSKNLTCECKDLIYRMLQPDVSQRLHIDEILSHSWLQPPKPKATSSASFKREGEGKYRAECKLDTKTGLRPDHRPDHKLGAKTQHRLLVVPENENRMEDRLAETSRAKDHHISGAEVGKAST
Outline: as §1

[8] = molecular target: Tie2(h) (Homo sapiens, UniProt Q02763)
Outline: as §1

[9] = molecular target: T3, LKB1(h) (Homo sapiens, UniProt Q15831)
T3 sequence (Q15831 1-433): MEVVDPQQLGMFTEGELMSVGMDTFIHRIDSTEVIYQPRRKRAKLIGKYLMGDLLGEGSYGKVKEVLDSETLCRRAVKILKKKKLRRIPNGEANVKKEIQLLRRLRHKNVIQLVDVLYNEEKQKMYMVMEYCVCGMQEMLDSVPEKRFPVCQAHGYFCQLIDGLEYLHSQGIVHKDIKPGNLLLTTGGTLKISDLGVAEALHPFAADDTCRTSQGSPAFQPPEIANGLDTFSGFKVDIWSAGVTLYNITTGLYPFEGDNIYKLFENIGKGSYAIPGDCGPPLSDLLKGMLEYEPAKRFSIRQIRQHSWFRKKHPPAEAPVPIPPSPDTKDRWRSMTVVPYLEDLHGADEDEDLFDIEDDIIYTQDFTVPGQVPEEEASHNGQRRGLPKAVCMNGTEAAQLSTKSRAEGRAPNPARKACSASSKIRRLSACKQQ
T3 sequence (Q7RTN6 1-431 partner): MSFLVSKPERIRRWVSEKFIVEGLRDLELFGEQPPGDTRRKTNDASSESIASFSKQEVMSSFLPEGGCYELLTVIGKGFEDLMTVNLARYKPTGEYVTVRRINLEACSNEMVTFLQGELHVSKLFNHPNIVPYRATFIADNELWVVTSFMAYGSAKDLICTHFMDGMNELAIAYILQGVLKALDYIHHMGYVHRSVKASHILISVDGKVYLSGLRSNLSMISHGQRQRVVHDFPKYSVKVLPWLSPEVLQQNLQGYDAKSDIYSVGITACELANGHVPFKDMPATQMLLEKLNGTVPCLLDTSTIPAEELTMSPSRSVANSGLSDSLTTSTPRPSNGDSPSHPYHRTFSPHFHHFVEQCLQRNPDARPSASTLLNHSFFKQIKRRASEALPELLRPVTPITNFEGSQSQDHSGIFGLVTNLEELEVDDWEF
T3 sequence (Q9Y376 1-341 partner): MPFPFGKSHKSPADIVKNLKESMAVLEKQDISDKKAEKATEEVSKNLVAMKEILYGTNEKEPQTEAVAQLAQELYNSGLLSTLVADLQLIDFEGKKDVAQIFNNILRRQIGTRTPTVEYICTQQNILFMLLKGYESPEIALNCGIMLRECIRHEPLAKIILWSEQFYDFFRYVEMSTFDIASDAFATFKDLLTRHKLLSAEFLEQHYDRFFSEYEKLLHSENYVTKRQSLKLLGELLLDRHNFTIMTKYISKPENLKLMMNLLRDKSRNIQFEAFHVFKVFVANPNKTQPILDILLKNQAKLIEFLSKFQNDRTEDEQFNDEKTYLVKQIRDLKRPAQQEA
Outline: as §1

[10] = molecular target: T4, Ret(V804M)(h) (Homo sapiens, UniProt P07949, V804M)
T4 construct: purchased Millipore (IC50 Profiler Express service)
Outline: as §1

[11] = molecular target: CaMKIδ(h) (Homo sapiens, UniProt Q8IU85)
Outline: as §1

[12] = molecular target: TLK2(h) (Homo sapiens, UniProt Q86UE8)
Outline: as §1

Sequence of Aurora-B(h) (Q96GD4 whole entry): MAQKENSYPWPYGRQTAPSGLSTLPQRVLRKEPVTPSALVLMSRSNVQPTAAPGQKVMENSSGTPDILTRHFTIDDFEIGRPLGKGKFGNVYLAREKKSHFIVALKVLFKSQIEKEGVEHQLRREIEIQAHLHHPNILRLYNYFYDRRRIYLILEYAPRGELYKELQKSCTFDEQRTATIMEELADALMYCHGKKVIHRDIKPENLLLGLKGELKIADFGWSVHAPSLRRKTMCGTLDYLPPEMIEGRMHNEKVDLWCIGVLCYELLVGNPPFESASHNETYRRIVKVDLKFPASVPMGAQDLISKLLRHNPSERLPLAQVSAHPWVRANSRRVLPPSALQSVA
Sequence of CaMKIδ(h) (Q8IU85 whole entry): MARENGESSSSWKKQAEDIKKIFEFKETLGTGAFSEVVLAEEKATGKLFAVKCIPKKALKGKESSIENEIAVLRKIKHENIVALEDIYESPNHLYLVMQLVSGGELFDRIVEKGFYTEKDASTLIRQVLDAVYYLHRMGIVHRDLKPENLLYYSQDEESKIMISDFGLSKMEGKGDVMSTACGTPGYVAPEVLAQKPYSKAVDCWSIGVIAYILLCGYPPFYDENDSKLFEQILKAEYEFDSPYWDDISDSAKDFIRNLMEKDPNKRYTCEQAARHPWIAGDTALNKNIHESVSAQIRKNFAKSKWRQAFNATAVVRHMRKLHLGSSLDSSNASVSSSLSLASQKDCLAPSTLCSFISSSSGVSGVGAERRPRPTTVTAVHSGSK
Sequence of CHK2(I157T)(h) (O96017 whole entry I157T): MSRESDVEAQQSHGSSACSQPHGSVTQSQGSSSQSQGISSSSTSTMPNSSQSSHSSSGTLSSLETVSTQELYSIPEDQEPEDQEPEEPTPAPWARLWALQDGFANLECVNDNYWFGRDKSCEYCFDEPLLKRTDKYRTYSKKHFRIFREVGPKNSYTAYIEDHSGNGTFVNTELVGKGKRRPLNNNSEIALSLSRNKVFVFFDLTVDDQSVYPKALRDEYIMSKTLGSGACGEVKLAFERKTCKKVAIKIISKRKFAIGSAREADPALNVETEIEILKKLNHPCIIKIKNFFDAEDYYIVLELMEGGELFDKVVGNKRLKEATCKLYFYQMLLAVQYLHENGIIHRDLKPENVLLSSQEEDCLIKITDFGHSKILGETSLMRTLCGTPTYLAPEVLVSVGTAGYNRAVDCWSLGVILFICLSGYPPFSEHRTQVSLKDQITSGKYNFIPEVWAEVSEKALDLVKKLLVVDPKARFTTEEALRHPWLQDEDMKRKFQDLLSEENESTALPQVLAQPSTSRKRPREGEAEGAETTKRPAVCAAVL
Sequence of CHK2(R145W)(h) (O96017 whole entry R145W): as the sequence (O96017 whole entry I157T) above, with R145W, T157I counted along it
Sequence of Tie2(h) (Q02763 23-1124): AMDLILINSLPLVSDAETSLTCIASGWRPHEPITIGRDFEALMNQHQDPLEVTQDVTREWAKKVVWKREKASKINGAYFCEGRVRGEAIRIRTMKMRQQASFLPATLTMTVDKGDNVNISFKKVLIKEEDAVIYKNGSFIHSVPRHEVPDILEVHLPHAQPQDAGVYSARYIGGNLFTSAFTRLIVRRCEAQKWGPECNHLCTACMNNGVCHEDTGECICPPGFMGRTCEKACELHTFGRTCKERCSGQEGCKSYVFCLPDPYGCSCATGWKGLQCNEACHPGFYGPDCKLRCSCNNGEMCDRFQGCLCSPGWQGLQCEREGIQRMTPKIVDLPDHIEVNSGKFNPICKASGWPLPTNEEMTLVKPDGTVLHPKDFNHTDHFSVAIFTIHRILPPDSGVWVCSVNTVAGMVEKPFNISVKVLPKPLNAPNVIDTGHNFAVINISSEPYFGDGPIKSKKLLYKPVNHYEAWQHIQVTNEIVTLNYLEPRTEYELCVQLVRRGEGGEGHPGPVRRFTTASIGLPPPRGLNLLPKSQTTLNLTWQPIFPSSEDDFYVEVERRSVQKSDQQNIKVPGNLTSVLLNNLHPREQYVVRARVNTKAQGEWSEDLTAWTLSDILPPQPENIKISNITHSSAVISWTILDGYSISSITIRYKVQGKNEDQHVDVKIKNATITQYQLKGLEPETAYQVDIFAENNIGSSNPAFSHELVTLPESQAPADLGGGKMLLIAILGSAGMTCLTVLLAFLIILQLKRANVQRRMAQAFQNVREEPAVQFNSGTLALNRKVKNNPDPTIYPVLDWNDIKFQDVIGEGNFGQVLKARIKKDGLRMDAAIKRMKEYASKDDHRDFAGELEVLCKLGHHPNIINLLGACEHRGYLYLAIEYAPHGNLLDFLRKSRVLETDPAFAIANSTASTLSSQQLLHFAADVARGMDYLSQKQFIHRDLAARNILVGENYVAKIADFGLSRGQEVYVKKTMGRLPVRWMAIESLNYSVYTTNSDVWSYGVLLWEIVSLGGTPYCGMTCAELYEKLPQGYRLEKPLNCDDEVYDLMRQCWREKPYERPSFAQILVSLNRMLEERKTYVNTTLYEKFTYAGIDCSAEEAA
Sequence of TLK2(h) (Q86UE8 whole entry): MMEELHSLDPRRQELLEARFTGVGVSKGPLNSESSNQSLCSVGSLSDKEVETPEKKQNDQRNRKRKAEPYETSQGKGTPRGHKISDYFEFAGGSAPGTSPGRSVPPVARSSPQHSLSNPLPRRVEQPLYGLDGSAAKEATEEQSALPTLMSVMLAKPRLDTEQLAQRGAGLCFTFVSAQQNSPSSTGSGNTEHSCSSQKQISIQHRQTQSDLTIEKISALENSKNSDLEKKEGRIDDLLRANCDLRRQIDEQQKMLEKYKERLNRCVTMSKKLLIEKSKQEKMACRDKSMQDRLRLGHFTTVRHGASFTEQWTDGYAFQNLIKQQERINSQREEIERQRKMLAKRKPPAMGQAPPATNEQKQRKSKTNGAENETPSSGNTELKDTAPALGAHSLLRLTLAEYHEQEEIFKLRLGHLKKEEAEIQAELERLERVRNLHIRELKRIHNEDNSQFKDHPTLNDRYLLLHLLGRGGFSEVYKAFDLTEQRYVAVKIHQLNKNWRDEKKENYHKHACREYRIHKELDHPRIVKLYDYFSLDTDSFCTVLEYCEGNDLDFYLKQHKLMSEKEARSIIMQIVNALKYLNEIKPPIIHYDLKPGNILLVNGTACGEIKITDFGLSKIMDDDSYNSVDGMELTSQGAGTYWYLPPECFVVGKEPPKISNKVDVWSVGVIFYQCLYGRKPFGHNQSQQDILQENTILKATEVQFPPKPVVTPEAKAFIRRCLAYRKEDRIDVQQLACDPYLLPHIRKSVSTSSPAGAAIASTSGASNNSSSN
Sequence of CDK1/cyclinB(h) (P06493 whole entry): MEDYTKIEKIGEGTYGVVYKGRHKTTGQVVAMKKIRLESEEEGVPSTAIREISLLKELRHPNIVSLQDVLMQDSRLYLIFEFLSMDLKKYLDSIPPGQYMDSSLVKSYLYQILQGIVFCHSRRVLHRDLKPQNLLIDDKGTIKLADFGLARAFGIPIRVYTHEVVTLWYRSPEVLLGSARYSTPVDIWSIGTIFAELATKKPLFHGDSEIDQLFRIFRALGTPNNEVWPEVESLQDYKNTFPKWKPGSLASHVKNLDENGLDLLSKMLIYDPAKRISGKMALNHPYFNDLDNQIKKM
Sequence of CDK1/cyclinB(h) (P14635 whole entry partner): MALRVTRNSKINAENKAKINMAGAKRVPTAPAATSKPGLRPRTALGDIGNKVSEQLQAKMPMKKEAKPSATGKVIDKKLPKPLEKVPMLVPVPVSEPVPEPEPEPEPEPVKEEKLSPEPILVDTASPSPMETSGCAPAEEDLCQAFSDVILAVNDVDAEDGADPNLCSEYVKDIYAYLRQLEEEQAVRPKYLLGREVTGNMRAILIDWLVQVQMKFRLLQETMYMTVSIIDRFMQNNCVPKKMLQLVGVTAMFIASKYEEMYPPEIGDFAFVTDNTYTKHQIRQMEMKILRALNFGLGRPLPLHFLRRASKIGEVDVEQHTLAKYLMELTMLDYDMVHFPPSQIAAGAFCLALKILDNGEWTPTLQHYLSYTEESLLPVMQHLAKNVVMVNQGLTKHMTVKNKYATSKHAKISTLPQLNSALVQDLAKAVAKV
Sequence of CaMKIIγ(h) (Q13555 whole entry): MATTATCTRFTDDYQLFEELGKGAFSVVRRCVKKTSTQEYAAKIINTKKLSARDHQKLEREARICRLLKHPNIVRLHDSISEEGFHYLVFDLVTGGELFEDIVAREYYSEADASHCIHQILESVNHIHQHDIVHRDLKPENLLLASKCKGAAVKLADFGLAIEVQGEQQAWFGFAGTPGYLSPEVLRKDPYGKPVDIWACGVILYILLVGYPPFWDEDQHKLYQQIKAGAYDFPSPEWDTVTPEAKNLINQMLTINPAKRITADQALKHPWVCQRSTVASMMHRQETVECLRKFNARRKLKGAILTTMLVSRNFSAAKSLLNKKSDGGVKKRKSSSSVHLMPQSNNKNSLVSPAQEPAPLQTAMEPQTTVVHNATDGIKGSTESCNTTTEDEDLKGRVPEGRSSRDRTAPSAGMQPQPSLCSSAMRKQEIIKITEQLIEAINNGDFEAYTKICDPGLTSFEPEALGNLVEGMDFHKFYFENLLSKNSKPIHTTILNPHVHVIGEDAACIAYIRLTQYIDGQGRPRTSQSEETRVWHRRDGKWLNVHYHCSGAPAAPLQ

Sequence: FAKLAARLYRKALARQLGVAA [MMI-0300]
- ZAP-70(h) % activity [1]: 75%
- CHK2(R145W)(h) % activity [2]: 33%
- CaMKIIγ(h) % activity [3]: 5%
- CDK1/cyclinB(h) % activity [4]: 73%
- CHK2(I157T)(h) % activity [5]: 43%
- Aurora-B(h) % activity [6]: 128%
- TSSK2(h) % activity [7]: 98%
- Tie2(h) % activity [8]: 26%
- LKB1(h) % activity [9]: 101%
- Ret(V804M)(h) % activity [10]: 95%
- CaMKIδ(h) % activity [11]: 10%

Sequence: HRRIKAWLKKIKALARQLGVAA (Mammalian) [MMI-0500]
- ZAP-70(h) % activity [1]: 1%
- TLK2(h) % activity [12]: 133%
- CHK2(R145W)(h) % activity [2]: 3%
- CaMKIIγ(h) % activity [3]: 3%
- CDK1/cyclinB(h) % activity [4]: 57%
- CHK2(I157T)(h) % activity [5]: 3%
- Aurora-B(h) % activity [6]: 5%
- TSSK2(h) % activity [7]: 92%
- Tie2(h) % activity [8]: 22%
- LKB1(h) % activity [9]: 51%
- Ret(V804M)(h) % activity [10]: 36%
- CaMKIδ(h) % activity [11]: 0%

Sequence: KAFAKLAARLYRKALARQLGVAA [MMI-0400]
- ZAP-70(h) % activity [1]: 33%
- TLK2(h) % activity [12]: 151%
- CHK2(R145W)(h) % activity [2]: 31%
- CaMKIIγ(h) % activity [3]: 3%
- CDK1/cyclinB(h) % activity [4]: 74%
- CHK2(I157T)(h) % activity [5]: 41%
- Aurora-B(h) % activity [6]: 150%
- TSSK2(h) % activity [7]: 94%
- Tie2(h) % activity [8]: 21%
- LKB1(h) % activity [9]: 89%
- Ret(V804M)(h) % activity [10]: 87%
- CaMKIδ(h) % activity [11]: 17%

Sequence: YARAAARQARAKALNRQLGVA (Mammalian) [MMI-0200]
- ZAP-70(h) % activity [1]: 58%
- TLK2(h) % activity [12]: 129%
- CHK2(R145W)(h) % activity [2]: 81%
- CaMKIIγ(h) % activity [3]: 94%
- CHK2(I157T)(h) % activity [5]: 85%
- Aurora-B(h) % activity [6]: 166%
- TSSK2(h) % activity [7]: 91%
- Tie2(h) % activity [8]: 53%
- LKB1(h) % activity [9]: 99%
- CaMKIδ(h) % activity [11]: 47%
